Results from patent US20230251254A1, “METHOD FOR EVALUATING INTERACTION BETWEEN IMMOBILIZED SUBSTANCE IMMOBILIZED DIRECTLY OR INDIRECTLY ON SUBSTRATE AND PROXIMITY-DEPENDENT MODIFYING ENZYMELABELED SUBSTANCE TO BE ANALYZED” (CELLFREE SCIENCES CO.,LTD., priority 2020, published 2023).

Assays:
[1] = biological target: T1, FLAG-GST-fused MDM2 (UniProt P23804 1-489); test: proximity-biotinylation bead array, streptavidin-HRP luminescence; labeling 26°C; exposure 10 min
T1 construct: Immobilized on glutathione magnetic beads on the non-denatured protein array; Order of the parts follows the printed name FLAG-GST; also called FLAG-GST-fused immobilized substance (MDM2); not shown: FLAG tag protein; GST protein (glutathione S-transferase tag)

[2] = biological target: T1, FLAG-GST-fused MDM2; test: proximity-biotinylation bead array, streptavidin-HRP luminescence; labeling 26°C 1 h; exposure 10 min
[3] = biological target: T1, FLAG-GST-fused MDM2; test: proximity-biotinylation bead array, streptavidin-HRP luminescence; labeling 26°C 3 h; exposure 10 min
[4] = biological target: T2, FLAG-GST-fused RelA (UniProt Q04206 1-551); test: as above
T2 construct: Immobilized on glutathione magnetic beads on the non-denatured protein array; Order of the parts follows the printed name FLAG-GST; also called FLAG-GST-fused immobilized substance (RelA); not shown: FLAG tag protein; GST protein (glutathione S-transferase tag)

[5] = biological target: T1, FLAG-GST-fused MDM2; test: proximity-biotinylation bead array, streptavidin-HRP luminescence; labeling 26°C 30 min; exposure 10 min
[6] = biological target: T2, FLAG-GST-fused RelA; test: as above
[7] = biological target: T2, FLAG-GST-fused RelA; test: proximity-biotinylation bead array, streptavidin-HRP luminescence; labeling 26°C 1 h; exposure 10 min

T2 sequence (Q04206 other isoform, or with tags, fused parts or gaps): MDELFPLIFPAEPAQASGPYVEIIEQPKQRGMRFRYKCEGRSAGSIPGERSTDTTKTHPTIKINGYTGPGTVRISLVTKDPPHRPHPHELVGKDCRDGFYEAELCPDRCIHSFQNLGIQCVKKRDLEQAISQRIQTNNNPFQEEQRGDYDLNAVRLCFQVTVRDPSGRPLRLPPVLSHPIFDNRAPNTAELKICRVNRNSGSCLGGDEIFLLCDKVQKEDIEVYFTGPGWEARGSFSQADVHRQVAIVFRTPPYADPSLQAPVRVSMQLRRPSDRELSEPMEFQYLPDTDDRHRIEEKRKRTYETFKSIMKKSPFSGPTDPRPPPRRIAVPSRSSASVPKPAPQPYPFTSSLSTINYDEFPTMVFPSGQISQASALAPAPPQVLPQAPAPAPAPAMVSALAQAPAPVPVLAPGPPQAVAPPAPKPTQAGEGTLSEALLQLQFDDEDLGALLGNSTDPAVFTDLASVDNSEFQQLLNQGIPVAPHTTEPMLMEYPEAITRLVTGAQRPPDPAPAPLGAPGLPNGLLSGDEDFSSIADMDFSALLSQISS
T1 sequence (P23804 whole entry, the tested form may be a part): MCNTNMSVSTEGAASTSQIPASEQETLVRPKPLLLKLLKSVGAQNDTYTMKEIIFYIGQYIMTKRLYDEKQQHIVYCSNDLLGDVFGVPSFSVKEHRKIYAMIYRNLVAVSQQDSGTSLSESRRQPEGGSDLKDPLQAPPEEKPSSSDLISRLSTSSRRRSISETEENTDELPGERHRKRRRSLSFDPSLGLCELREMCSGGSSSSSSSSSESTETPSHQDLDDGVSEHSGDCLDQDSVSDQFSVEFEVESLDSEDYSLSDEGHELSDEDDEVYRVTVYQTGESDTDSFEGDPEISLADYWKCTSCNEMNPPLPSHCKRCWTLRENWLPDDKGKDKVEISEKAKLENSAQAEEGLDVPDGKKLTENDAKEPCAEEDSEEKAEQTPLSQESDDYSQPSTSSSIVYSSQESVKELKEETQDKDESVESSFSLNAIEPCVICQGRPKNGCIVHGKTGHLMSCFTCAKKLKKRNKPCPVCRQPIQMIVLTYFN

Binder	binding result [1]	signal value [2]	signal value [3]	signal value [4]	signal value [5]	signal value [6]	signal value [7]
AVVA-R118G mutant-fused Iκβα (other) fusion protein: MSEQWSRKREILALLSSGHFVSGEELATQLGISRTAVSKHIAALEEYGVDIYSVKGKGYKLANPISLIDESKLKSAINNRCFYFDEIPSTNGFMLKHAEELKSGDICVAEYQSAGRGGRGRTWVSPYGCHLYFSLYWRFPQGMAQAMGLSLVVACSLVKVLKSFGVDGVGVKWPNDIYLNHKKLAGVLIEMSGQADSECHLVIGIGINMAMSEQQGKKIDQPWSDLSSLTSMPDKTELLIALQKQLKQDLELFEREGLKAFQPRWQEADLFYGKQIKLLMGENQVEGICRGIDEQGAVLLETDDGIQAFIGGEISLRAAMFQAAERPQEWAMEGPRDGLKKERLLDDRHDSGLDSMKDEEYEQMVKELQEIRLEPQEVPRSSEPWKQQLTEDGDSFLHLAIIHEEKALTMEVIRQVKGDLAFLNFQNNLQQTPLHLAVITNQPEIAEALLGAGCDPELRDFRGNTPLHLACEQGCLASVGVLTQSCTTPHLHSILKATNYNGHTCLHLASIHGYLGIVELLVSLGADVNAQEPCNGRTALHLAVDLQNPDLVSLLLKCGADVNRVTYQGYSPYQLTWGRPSTRIQQQLGQLTLENLQMLPESEDEESYDTESEFTEFTEDELPYDDCVFGGQRLTL	no binding	230	310	39400	140	6900	–
AVVA-R118S,Q141R mutant-fused Iκβα (other) fusion protein: MSEQWSRKREILALLSSGHFVSGEELATQLGISRTAVSKHIAALEEYGVDIYSVKGKGYKLANPISLIDESKLKSAINNRCFYFDEIPSTNGFMLKHAEELKSGDICVAEYQSAGRGSRGRTWVSPYGCHLYFSLYWRFPRGMAQAMGLSLVVACSLVKVLKSFGVDGVGVKWPNDIYLNHKKLAGVLIEMSGQADSECHLVIGIGINMAMSEQQGKKIDQPWSDLSSLTSMPDKTELLIALQKQLKQDLELFEREGLKAFQPRWQEADLFYGKQIKLLMGENQVEGICRGIDEQGAVLLETDDGIQAFIGGEISLRAAMFQAAERPQEWAMEGPRDGLKKERLLDDRHDSGLDSMKDEEYEQMVKELQEIRLEPQEVPRSSEPWKQQLTEDGDSFLHLAIIHEEKALTMEVIRQVKGDLAFLNFQNNLQQTPLHLAVITNQPEIAEALLGAGCDPELRDFRGNTPLHLACEQGCLASVGVLTQSCTTPHLHSILKATNYNGHTCLHLASIHGYLGIVELLVSLGADVNAQEPCNGRTALHLAVDLQNPDLVSLLLKCGADVNRVTYQGYSPYQLTWGRPSTRIQQQLGQLTLENLQMLPESEDEESYDTESEFTEFTEDELPYDDCVFGGQRLTL	no binding	190	230	> 65000	120	10400	37500
AirID-S118G mutant-fused Iκβα (other) fusion protein: MKDNTVPLTLISILADGEFHSGEQLGEQLGMSRAAINKHIKTLRDWGVDVFRVQGKGYCLPEPIQLLDEEKIRQQLDEGSVTVLPVIDSTNQYLLDRLDELTSGDVCIAEYQQAGRGGRGRKWFSPFGANLYLSMYWRLEQGPAAAMGLSLVIGIVMAETLQKLGADGVRVKWPNDLYLNDRKLAGILVEMTGKTGDAAHIVIGAGINLSMREPETDEVDQSWINLQEAGITIDRNQLAARLIKDLRSALRQFEQQGLAPFLSRWEALDNFINRPVKLIIGDREIHGIARGINEQGALLLEQDGVIKPWIGGEISLRSAMFQAAERPQEWAMEGPRDGLKKERLLDDRHDSGLDSMKDEEYEQMVKELQEIRLEPQEVPRSSEPWKQQLTEDGDSFLHLAIIHEEKALTMEVIRQVKGDLAFLNFQNNLQQTPLHLAVITNQPEIAEALLGAGCDPELRDFRGNTPLHLACEQGCLASVGVLTQSCTTPHLHSILKATNYNGHTCLHLASIHGYLGIVELLVSLGADVNAQEPCNGRTALHLAVDLQNPDLVSLLLKCGADVNRVTYQGYSPYQLTWGRPSTRIQQQLGQLTLENLQMLPESEDEESYDTESEFTEFTEDELPYDDCVFGGQRLTL	no binding	220	370	51400	240	9570	10200
